The values that follow come from the RNAGym collection of RNA variant scans (doi:10.1073/pnas.2313332121).

B1: TPR t1 (parent)
chain: GACCAAUCUGCCCUCAGAGCUCGAGAACAUCUUCGGAUGCAGAGGAGGCAGGCUUCGGUGGCGCGAUAGCGCCAACGUCCUCAACCUCCAAUGCAUCCCACCACAUGAUGAUGCCUGAAGAGCCUUGGUUUUUUG

The variants in this series derive from B1. The series can be described thus: polymerase ribozyme fitness, log enrichment relative to wild type (log ratio); higher = more active; in vitro selection for triplet polymerase activity. Summed up:
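For each subunit of a heterodimeric triplet polymerase ribozyme, a mutant library was built by PCR and transcribed, then taken through a single in vitro selection round in triplicate. Selection involved annealing to a biotinylated primer, the partner subunit and triplets, incubation frozen at −7 °C, gel excision of extended constructs, capture on streptavidin beads and RT-PCR. Genotypes were retained after Illumina sequencing of inputs and outputs only with ≥10 input reads and ≥1 read in each output. Fitness is defined as the logarithm of a genotype's enrichment relative to wild-type enrichment, using inverse-variance-weighted averages across replicates, with the logarithm taken to base 2.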
On to U32A G45C U54A G61U, for which the “polymerase ribozyme fitness (log ratio)” value is -3.78.
For C28G U32G C62A A121C the value was -6.19; for C13G C72G C85A, -3.33.
The figure for G69U A119G G122C is -2.33; for C73U G93A it is -0.23.
For A16C C49A the value was -3.04; for G10A C34A C40U G71C G77U C88A G113A, -6.08; for C3U G35U C70A C99A C115A, -4.32.
As to C11G G51A C53G G61U C124U U131G, the “polymerase ribozyme fitness (log ratio)” value was -1.99.
For U30C U54A the value was -2.81; for G51U C73G, -3.52.
A68C C72U U78C C114G G120A C123U: the “polymerase ribozyme fitness (log ratio)” value is -7.64.
For G10U C12G G17U G113A U126G the value was -4.16; for G60A C124A, 1.81; for C40U C73U C80U G117U, -4.15.
The figure for C53A C72G U92C U126A U132A is -4.63.
As for C89G A105G, the “polymerase ribozyme fitness (log ratio)” value was -3.85.
As to C13U C22G G44A C56A, the “polymerase ribozyme fitness (log ratio)” value is -5.28.
The figure for U9A C13A A16U C34G G48C G69U C80U is -4.42.
The figure for G17U U55A U112A C114G G120C is -5.87; for G10A C31U G61C C82A C94G C124U it is -5.7; for C11G C115U U130A it is -0.677.
For C22U G44C C56U the value was -4.25; for A41U C56U A75G U78C C82G A118G G120U A121U U129G, -3.43; for A6G A41C C56A G93U G117C, -4.14.
Take G44A G93A: the “polymerase ribozyme fitness (log ratio)” value was -1.2.
For C11U A18C C82A C104U the value was -2.34; for U38G G39U U54G U87A G113C, -3.28; for A6G G48U, -0.663.
For C34U C86U the value was -5.16; for A41G G42C A46C U54A G60U G110A, -4.92.
For A27C U55G the value was -2.72; for A2G G93A G120U, -0.278.
Regarding C8G C56A C124G, the “polymerase ribozyme fitness (log ratio)” value stood at 1.48.
For A24G A29G C56A U87G G110A U133A the value was -3.1.
The figure for C79A C115G is -2.56; for A43U U78C G93A it is -1.95; for C11G G39A G61A it is -0.302.
For A29U C40U C72G A84C A100C U106A A119U the value was -3.21.
Consider C31U G63U, for which the “polymerase ribozyme fitness (log ratio)” value is -3.29.
For C49U G60U U106A G127U U130G G135U the value was -1.71; for C13U G19U G42U G60A G110U, -5.83.
The figure for G44A G48C G60U is -0.957; for U7A U9A C20U U38A G47U C56A G60U C72G C114A A121U C123U it is -4.89.
The figure for C31U C85A U106A is -2.67; for U14G A27G A29G G36C C40U C56A G63U C115U G122A it is -6.64.
For the variant A41G G61C C94A A111U, the “polymerase ribozyme fitness (log ratio)” value was -5.2.
For G45C G48C G69A the value was -4.32.
The figure for C15A G52C G63U G93U C97U is -5.64.
The figure for A2U C76U is -1.64.
As for G51A U130A, the “polymerase ribozyme fitness (log ratio)” value is -3.19.
For A27U C53U the value was -2.7; for C12A A26U G44C C102U C123G, -7.51.
The figure for A43C G63A U78C C88A A91G C94U U130C is -4.78; for A5C C53U it is -1.88.
For the variant C72U G117A, the “polymerase ribozyme fitness (log ratio)” value is -1.29.
For U106C U116A the value was -2.94.
The figure for U9A C53U C123G is 1.66; for C11A G48U U96G U112C it is -1.36.
For C73A C101U the value was 0.2.
Consider U21A A95G G117U, for which the “polymerase ribozyme fitness (log ratio)” value is -1.3.
The figure for U96A C97A is -2.95.
The figure for C56A C62U is -0.164.
For C8G G48C A50U C53A C62G U129C the value was -2.9.
With A46U C64U, the “polymerase ribozyme fitness (log ratio)” value is -2.1.
The figure for G36U G44A C104A is -4.47.
With C72G U106G, the “polymerase ribozyme fitness (log ratio)” value was -1.97.
For G48U C62G C104A U106C the value was -5.05; for C11U G117C, -2.78.
The figure for G58C A68G C86A C115U is -6.11.
For C79A G113A C124G the value was -3.89.
U14G A50C C56G C89U A95G: the “polymerase ribozyme fitness (log ratio)” value is -3.5.
The figure for U9A C104A is -0.737.
The figure for U14C U21A G61A G117C is -3.39; for C8G C20G G63C U109G it is -3.93; for A2G C3A G39U U59A A105C U106A C123G it is -2.32.
The figure for C102A G120A A121C C124U is -0.193; for C3U G10A it is 0.634.
As for C8A A18C C34G A43U, the “polymerase ribozyme fitness (log ratio)” value was -7.06.
The figure for A29U G63U U78C is -4.96; for U7A C8U G60C it is -0.91.
Take C70G U78C U92C: the “polymerase ribozyme fitness (log ratio)” value was -5.65.
The figure for C99A G110U is -4.34.
The figure for C22G A24U U30C A46G G48U G60C G110U is -6.93; for G42A G58A it is -1.77.
The figure for C73A C99U A118G is -3; for C20U G52C C114A C123U it is -4.27.
C98G G110A: the “polymerase ribozyme fitness (log ratio)” value was -4.98.
Turning to C8A U54A C62U G110U U125C, the “polymerase ribozyme fitness (log ratio)” value is -1.99.
For G39A G45C G51C G69U U125G the value was -2.57; for G57C G93A, -0.552; for U7A G61A U112G, 0.622.
In the case of C22U G77A, the “polymerase ribozyme fitness (log ratio)” value was -4.04.
The figure for G48C A90G is 0.432.
On to U54A G71U, for which the “polymerase ribozyme fitness (log ratio)” value was -0.0584.
On to U30A C73U, for which the “polymerase ribozyme fitness (log ratio)” value is -5.38.
For the variant G45A C64A, the “polymerase ribozyme fitness (log ratio)” value is -6.18.
The figure for C11A G47A C102A is -4.79; for C12A G61U it is -0.581.
For A18C C73U, the “polymerase ribozyme fitness (log ratio)” value is -2.53.
For U32C G60U U87C C101G the value was -5.05; for U33G G63C U112G U129A, -7.08; for C12U G42A G128C U131G, -4.81.
For G19A G51A the value was -5.49; for G10U C13G C72U, -0.677.
For C56A C102U the value was -1.54.
As to A18C U55A G57C C70G C124A, the “polymerase ribozyme fitness (log ratio)” value is -6.54.
For the variant A50U U59A G60C C80G C88U, the “polymerase ribozyme fitness (log ratio)” value is -2.26.
For C49U G93A C101U G127C the value was -2.96.
Regarding A2G C11U G48C U92A, the “polymerase ribozyme fitness (log ratio)” value was -4.56.
For the variant G61A C73U C76U, the “polymerase ribozyme fitness (log ratio)” value is -3.66.
For the variant C12U U78G U96A G120U U131A, the “polymerase ribozyme fitness (log ratio)” value was -0.178.
As for G25A U54A G61U, the “polymerase ribozyme fitness (log ratio)” value was -7.38.
The figure for G47U G69A is -4.35.
The figure for A66U C85U is -2.22.
For C22A C123A the value was -4.13; for G19A C79G U81C, -3.95; for G48A C53G U55C G69A, -2.78.
For the variant C8G A29U, the “polymerase ribozyme fitness (log ratio)” value was -1.15.
For G61A U129A the value was -1.11.
For G61U C101G U106A the value was 0.513; for C56A C98A, -5.59; for C56A C98U, -1.91.
For A90C U109A A118U the value was -5.95.
As to G23A C70U, the “polymerase ribozyme fitness (log ratio)” value was -4.99.
For C4U A74G C89G U112G the value was -2.61; for A26G U112A U125A, -1.55.
For C56A G117C the value was -3.44; for C20U G60U C72U C94U, -1.4.
The figure for C34U C114G is -6.1.
Regarding G39U G42C, the “polymerase ribozyme fitness (log ratio)” value is -2.2.
For G48C G120A, the “polymerase ribozyme fitness (log ratio)” value was -0.738.
The figure for C34G G39C G120U is -6.09.
Turning to C12U C31U, the “polymerase ribozyme fitness (log ratio)” value is -4.34.
For C8U C13G A29U G122A the value was -2.49; for C4U C102U C124U, -0.637.
In the case of C34G A68C G113U U126A U133C, the “polymerase ribozyme fitness (log ratio)” value is -5.64.
For A41U G45A U55C the value was -1.85; for A6C U59G, -0.454; for A50U G63C C86G U87A, -3.52.
Take U7A U109G: the “polymerase ribozyme fitness (log ratio)” value is -2.9.
The figure for G63C C73G C115G is -5.56; for C20A A46G C49A G60U U81G A91C it is -5.46.
The figure for C62U U112A is 1.02; for G19A A41U U81A C82A U112A it is -0.674.
The figure for A27C G77A is -4.66.
Consider G60U C70A C114U, for which the “polymerase ribozyme fitness (log ratio)” value was -7.08.
Consider U9G A121U C123U, for which the “polymerase ribozyme fitness (log ratio)” value was determined as 2.06.
On to U7A A29G A83C, for which the “polymerase ribozyme fitness (log ratio)” value was -0.648.
Regarding C62A C94A, the “polymerase ribozyme fitness (log ratio)” value was -2.2.
For A27C G60C C73G the value was -2.55.
Turning to G107C G120U, the “polymerase ribozyme fitness (log ratio)” value was -3.85.
The figure for A41U C49G A83C U133G is -1.44.
The figure for A43U A66G is -3.64; for A5U C49G C70A it is -3.06; for U7C A91U G117U it is -2.74.
The figure for A16U U32A A46U A66C A103C A111G is -7.56.
In the case of C70U C82G C104A A111U C115U G127U, the “polymerase ribozyme fitness (log ratio)” value is -6.19.
For U87C A90G U96A the value was 0.000334.
Turning to A6U C97U, the “polymerase ribozyme fitness (log ratio)” value was -0.46.
With G47U U116A, the “polymerase ribozyme fitness (log ratio)” value is -3.64.
For C3G G42U C99U C115G A121G the value was -5.96; for C62U C73U U81G A84C G113A, -3.57.
The figure for A74U C82G C123U U131A U134C is 0.478; for A6G C28U it is -0.918; for C12G G39A G44A C102U it is -4.47.
For A6U C15U the value was -1.43.
